In US20170281764A1 (JN BIOSCIENCES, published 2017):
Positions count from the first letter of the chain named. In names and notes the source's numbering stands.

Legend:
Experiment in all cases: flow cytometry titration on CHO-K1 cells transiently expressing the HA-tagged TIGIT mutant, Alexa488 anti-human IgG detection, four-parameter fit of percent of control, nM is from the concentration axis and paragraph 252
[1] = target: T1, T96A
T1 construct: also called HA-tagged human TIGIT with mutation T96A, on CHO-K1 cells
T1 single chain: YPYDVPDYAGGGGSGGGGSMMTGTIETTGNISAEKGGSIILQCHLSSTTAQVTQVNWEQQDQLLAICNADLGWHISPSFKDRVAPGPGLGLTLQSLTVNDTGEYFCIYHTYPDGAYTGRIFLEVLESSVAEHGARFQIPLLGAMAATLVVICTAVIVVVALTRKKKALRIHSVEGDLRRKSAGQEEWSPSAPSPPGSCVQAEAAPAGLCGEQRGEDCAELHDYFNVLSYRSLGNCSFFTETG
Method: (§1) For flow cytometry analysis of the anti-hTIGIT antibody binding epitope, HA-tagged human TIGIT proteins with or without single amino acid mutation were transiently transfected into CHO-K1 cells. After 24 hr, transfected cells were suspended in HBSS buffer (Thermo Fisher Scientific, Cat#14175095), and incubated with HuTIG1-IgG1.AA antibody at varying concentrations in 50 μL volume. After 1 hr incubation at 4° C., cells were washed and a second incubation with 50 μL Alexa488 conjugated anti-human IgG(H+L) secondary antibody (Thermo Fisher Scientific, Cat#A-11013) was performed to detect cells bound by antibody. Cells were incubated with an anti-HA antibody (Sigma, Cat# H7411) as a positive control, and non-transfected CHO-K1 cells were used as a negative control. The cells were analyzed on an Attune NxT Cytometer (Thermo Fisher Scientific) and the data were processed using FlowJo software. For each mutant, the saturating antibody binding MFI (mean fluorescence intensity) were normalized to 100% POC (percent of control), and no primary antibody binding control MFI were normalized to 0% POC. Data were then fit to a four parameter non-linear sigmoidal curve using GraphPad Prism 7 curve fitting using following formula: Y=Bottom+(Top−Bottom)/(1+10^{((Log EC}^₅₀^{-X)*HillSlope)}).
(§2) All of these residues co-locate to one discrete region on the front ([…] structure of the TIGIT IgV extracellular domain (FIG. 28).

[2] = target: T2, F86A
T2 construct: also called HA-tagged human TIGIT with mutation F86A, on CHO-K1 cells
T2 single chain: T1 single chain with F105A, A115T
Method: as §1, §2

[3] = target: T3, HA-tagged human TIGIT with mutation D51A, on CHO-K1 cells (human, UniProt Q495A1 22-244)
T3 construct: Built as for m17
T3 sequence: T1 single chain with D70A, A115T
Method: as §1, §2

[4] = target: T4, HA-tagged human TIGIT with mutation N37A, on CHO-K1 cells (human, UniProt Q495A1 22-244)
T4 construct: Built as for m17
T4 sequence: T1 single chain with N56A, A115T
Method: as §1, §2

[5] = target: T5, T34A
T5 construct: also called HA-tagged human TIGIT with mutation T34A, on CHO-K1 cells
T5 single chain: T1 single chain with T53A, A115T
Method: as §1, §2

[6] = target: T6, I88A
T6 construct: also called HA-tagged human TIGIT with mutation I88A, on CHO-K1 cells
T6 single chain: T1 single chain with I107A, A115T
Method: as §1, §2

B1: HuTIG1-IgG1.AA (humanized IgG1/kappa form of TIG1, L234A/L235A) (antibody)
heavy: not shown
light: DIQMTQSPSSLSASVGDRVTITCRASKSISKYLAWYQQKPGKAPKLLIYSGSTLQSGVPSRFSGSGSGTDFTLTISSLQPEDFATYYCQQHNEYPWTFGGGTKVEIKRTVAAPSVFIFPPSDEQLKSGTASVVCLLNNFYPREAKVQWKVDNALQSGNSQESVTEQDSKDSTYSLSSTLTLSKADYEKHKVYACEVTHQGLSSPVTKSFNRGEC
notes: Mature full chains; also called humanized TIG1
Q: For B1, which EC50 [1] is on record?
A: Its EC50 is 1.36 nM.

Q: And the EC50 [2]?
A: The EC50 was 0.844 nM.

Q: And the EC50 [3]?
A: Its EC50 is 30.5 nM.

Q: And the EC50 [4]?
A: The EC50 was 126 nM.

Q: What about the EC50 [5] of the same binder?
A: The EC50 was 0.577 nM.

Q: What about the EC50 [6] of the same binder?
A: The EC50 was 0.591 nM.
